Assay results from patent US20250051821.

B1: IFF21356 (protein)
chain: GNPDKPEVNPHIPYDRLESDLRNNLHPTQSTWDYWGAGWIPQGCKDLANTYHLNPADFTIFNVHYTDCSASWTFCRHKNAGASEIDMIDIFGRLPVHMRSYIRHLVATPGLNDGAAAWTWSSGDCVVESAPNLATLVHEVSHSLDWHALPQYQQPFSSSSIWQDNYNQDSATPTGYGRTNWMENFAETGMVGVYDKVVPGGIGNIEPNWNAIFHQYATYQGYLGDKIIPGGSCANRFDDTPPVAMSNSAKVKVNSPKPGTRIDFAGTNITQIIPSKEVEGLYIKG
B2: IFF21380 (protein)
chain: QQLDKPALTNDLDYLLEGNVNNLPSNGGPYWGKWEAGLMPADCKSIAESQDLDPTDFEVWDIFFDDCQDGWSFCRHVDSADSFETLVDTFGRIPVRMRSWIRHILTIPGDNWAFNSNGNIAFSGTTSANLDVALHETGHSLDLLGAYGSEALSSTQEWLDAYDADSNVPDNYARSNQVENVAQNTVVGIYDKVVPGGFPGVQPNYQNIENQYTLLQDKAGDQIIPGGTCDRHLENSETVSASGSSKKARDSVNKKSRAVAHDPAFKGTYTNIVKDFVPFNTQDYHH
B3: IFF21368 (protein)
chain: QLSKPVMNPPVPFSDLDPTLFKYLKSTPHNRDQWGWGWLPARCKAIADQQGLNAYDIDVYNVHYSDCNQAWVMCRHHLSPLSIDTMAENFGRIPVRMRNFVRVQFALPQKDSSFGGATFSDLGDILWYGDVSKTLRFWIHEAGHTIDRNINPGSNDDYSKSSAWLNEYNKDGFICDDYAKNNAAENFAQEVIVALFDKVVPGGLGSVSPNWNSIFHQYATVQSKLGDILIPGGTCNRKFADDTIVCMGPAANCNSKANAKFRLKADKTQDAAIVAASDNPPIEDLFEVEE
B4: IFF21369 (protein)
chain: QLPKPIMSPAVPFDHTDPILYQHLGSTPSTYDQWGWGWLPLRCKAVAEARGLNPYDVNVYNVHYEDCDQAWVMCRHHGAQVSLDQMIDNFGRLPVRLRNIVRHQFAVPGEGLGAYTYSDLGDIVFTGDIGHLLRFWVHEAGHAVDRNINPSQGDYSSSQAWINEYNKDGYICDEYAKNNMAENFAQEVIVALFDKVVPGGIGTIVPNWNDIFHQYATVQAVMGDMLIPGGFCNRHFADDTIVCMGPAAGCENSKRDYEGLNSTETYTAEAEEPTVCTLA
B5: IFF21371 (protein)
chain: QLDKPLVVPAMPALDAGLLKHLAAPAYTTSQWEWGWIPQWCKDEAVSEKLSPYDIEVFNIHYNDCKDVWIFCRHNAAQASQKDMIDIFGRMPVRTRQFVRHILAVPGTISAGSSGDNIALRGTGPNLISVLIHEAAHSMDSHAVDSLSKPFHNTAEWLAAYKADSAISDDYAQTSQSENFAQTVVIAVFDKVVPGGIGSVQPSWAAIKNQYTTAQKWLGDLIIPGGTCTARLENSPVASMGRASGNGARMRRRARGGKPDVSLSKDTKVIPAIAGKKIHITSFAQ
B6: IFF21362 (protein)
chain: GSPDKPEMNPAFDYGRFEAGLRDNLHPTHSTWDYWGPGWIPQSCKDIATSHGLSPNDFTIFNVHYDDCQEGWTFCRHKDAGASEIDMIDIFGRAPVHMRSFIRHLVATPGLHDGAAAFTFSNGDCVVESAPDLSVMLHEMSHSLDWHALPQYPSPFSSSNEWQSNYAQDSNTPTAYGRTNWLEDFAEAGKVGVFDKVVPGGFGSVAGNWGQVFHQYATYQGYLGDTILPGGTCDKRFPNSETVPMAGNSKRMAADLGEKPDNTIKADNMTLIQMRPEIEGQVSICEHQH
B7: IFF21355 (protein)
chain: GNPDKPEVSPRIPYDRLESGLRNNLHPTQSTWDYWGAGWIPQGCKDLAKTYHLNPADFTIFNVHYTDCSASWTFCRHKDAGASEIDMIDIFGRLPVRMRSYIRHLMATPGLNDGAAAWTWSSGDCVVESAPNLATLVHEVSHSLDWHALPQYQQPFSSSSIWQDNYNQDSATPTGYGRTNWMENFAETGTVGVYDKVVPGGIGNIEPNWNAIFHQYATYQGYLGDKIIPGGSCANRFEDTPPVAMSNSVKFKITSPKPEIGIDFVGKNITQIIPSKEVEGLYIKG
B8: IFF21364 (protein)
chain: QLDKPALTDNLDYLLDGNVANLPSNGGPYWGKWEDGLIPADCKSIAESQGLNPTDFEVYDIFFDDCQDGWSFCRHKDSSDSFETLVDTFGRVPVRMRSWVRHILTIPGNNWAFNSNGNIAFSGTTSSNLDVALHETGHSLDLLGAYGDGALSSSQEWEDAYNADSNVPDNYAQSNQVENVAQNTVVGIYDKVVPGGFPGVQPNYANIQNQYTLLQDKAGEQIIPGGTCDRHLENSDTVSMSGSSSKRDVRAAKARAASHDSALKGKYSNIVKDFKPFNSQDFHH
B9: IFF21357 (protein)
chain: GNPDKPEVNPHIPYDRLESDLRNNLHPTQSTWDYWGAGWIPQGCKDLANTYHLNPADFTVFNVHYTDCSASWTFCRHKDAGASEIDMIDMLGRLPVRMRSYTRHLMATPGLNDGAAAWTWSTGDTVVESAPNLATLVHEVSHSLDWHALPQYQQPFSSSSIWQDNYNQDSATPTGYGRTNWMENFAETGMVGVYDKVVPGGIGNIESNWNSIFHQYATYQGYLGDKIIPGGSCANRFDDTAPVTMSNSAKFRVTSPKPETGIDFAGKNITQIIPSKEVEGLFIKG
B10: IFF21377 (protein)
chain: KRLDKPALTPDLGYLLQGSVDNLHPTHSTWDKWGDGWIPEDCKSMAQNPNLNLNLNPSDFEVYNVHYDDCGDAWVLCRHKDSPVDLVTTVDIFGRLPVRMRDWVRHVMTVPGNDYAFNLNGNIVFSGRTSTNMDVAIHETGHSLDLLKAYGEVLSSSQTWIDNYNQDSNVPDNYAQSSQIENVAQNTVVSVFDKIVPGGFGSVQPNWHNIFHQYATLKSKAGDLILPGGQCDRRLKDSSPIPMDSNANEQGLLSWKPRTSFVNTYNNIVTNFEPFNTAEHCKESFS
B11: IFF21363 (protein)
chain: QLDKPVIDPEFPSGALDQGLNDHLRAPGSSWDAWEEGWIPEDCKNMIEGTEFSVQDITPFNIHYDDCEDPWVFCRHKDSPLSEDYIVDAFGKMPVRFRSFVRHMLFVPGTESAGSSGDNVQMNGDLPITVFIHETAHSFDGHHGLPDIEGGFSASQAWLDAYNADSAVTDDYGQTSQAENFAQQTVVALFDSNVPDGVASIQPSWQSIENQFRLIQDRAADILRPDGTCTSRLENSAPVEKGGSARLRPSASTKPDVSLKGKIKVIEPVPMGAEMEMAQYDASGKVVGTKVVKVGGRE
B12: IFF21331 (protein)
chain: ALDKPIIDPEFPGGGLASLGQGLLDNLAPTQSTYADWEAGFIPQDCKTIAEGNSLSPLDIIPFNITYTDCSDPWIFCRHKDSPLSEVDMIDLFGRMPVGMRSFIRHIISIPGDKSAGSNGDNVQMNGDVDITVFIHETGHSLDSHGFDASYGVPFSTGQVWTDNYNLDSAVTDSYAQSSQQENFAQETVVALYDKVVPGGVGTIQPNWQAIQHQYETIQGYAGGIIIPGGTCTNRLPNSPAVPMSDSAKYRVNMAHKPDVSLSNYVTEIKSIPMEPIMKLTHYDAAGRPIGKSTIDLST
B13: IFF21353 (protein)
chain: NLDKPVIQPNFPSLAPGLMSHLAPTHSTWDDWGAGWIPQDCKSMVQGAGFSPNDIIPFNIHYDDCGQTWTFCRHKNSPLSELQILDMFGRLPVRMRSFVRHLVFVPGNRSAGSNGDNILVVGDGDITLFAHEIGHSLDSHAFDPSYGVPFSTGNVWVSNYNLDSAVSDSYAQTSQQENFAQETVISLFDKVVPGGIGTIQPNWQAIFHQYATLQGYIGNVIIPGGTCTHRLTDSPPVPMSGSAKSRRGLGPKPEVSLSPEVKEIEAIPMESSITMTSFDEHGKPNGTYVIHLK

Target: T1, IFF05588
T1 chain: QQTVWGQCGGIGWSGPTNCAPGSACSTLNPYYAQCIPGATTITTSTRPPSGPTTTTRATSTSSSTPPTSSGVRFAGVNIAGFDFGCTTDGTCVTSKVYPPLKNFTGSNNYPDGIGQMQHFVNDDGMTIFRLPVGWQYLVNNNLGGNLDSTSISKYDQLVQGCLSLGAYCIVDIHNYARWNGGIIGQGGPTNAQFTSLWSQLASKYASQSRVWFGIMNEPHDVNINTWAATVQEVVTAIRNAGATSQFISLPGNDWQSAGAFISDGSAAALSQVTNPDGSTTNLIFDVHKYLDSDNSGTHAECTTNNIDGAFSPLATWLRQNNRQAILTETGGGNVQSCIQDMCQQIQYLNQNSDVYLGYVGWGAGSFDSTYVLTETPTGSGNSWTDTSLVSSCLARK

| Protein | Relative late peak area (centered, scaled, averaged over 5, 10 and 15 min) | Relative late peak area (centered, scaled, averaged over doses, 24 h; sample diluted 1-fold) | modification of IFF05588 (reverse phase chromatography, 5 to 15 min) | Relative late peak area (reverse phase chromatography, 24 h) | modification of IFF05588 (reverse phase chromatography, 24 h) | Relative late peak area (centered, scaled, averaged over doses, 24 h; sample diluted 2-fold) |
| --- | --- | --- | --- | --- | --- | --- |
| B1 | -1.04 | -1.52 | All samples containing proteins related to IFF05497 except seven (IFF21355, IFF21358, IFF21356, IFF21361, IFF21370, IFF21357 and IFF21353) are able to modify IFF05588 under these reaction conditions |  |  |  |
| B2 | -0.71 | -0.02 |  | 0.61 |  |  |
| B3 | -1 | -1.44 |  |  |  |  |
| B4 | -1 | -1.42 |  |  |  |  |
| B5 | -0.95 | -1.12 |  |  |  |  |
| B6 | -0.99 | -1.52 |  | 0.23 | All samples containing proteins related to IFF05497 except one (IFF21362) are able to modify IFF05588 under these reaction conditions |  |
| B7 | -1.02 | -1.52 | All samples containing proteins related to IFF05497 except seven (IFF21355, IFF21358, IFF21356, IFF21361, IFF21370, IFF21357 and IFF21353) are able to modify IFF05588 under these reaction conditions |  |  |  |
| B8 | -0.57 |  |  | 0.49 |  | -0.28 |
| B9 | -1.05 | -1.49 | All samples containing proteins related to IFF05497 except seven (IFF21355, IFF21358, IFF21356, IFF21361, IFF21370, IFF21357 and IFF21353) are able to modify IFF05588 under these reaction conditions |  |  |  |
| B10 | -0.99 | -1.45 |  |  |  |  |
| B11 | -0.43 |  |  | 0.3 |  | -0.13 |
| B12 | -0.86 | -0.21 |  |  |  |  |
| B13 | -1.06 | -1.31 | All samples containing proteins related to IFF05497 except seven (IFF21355, IFF21358, IFF21356, IFF21361, IFF21370, IFF21357 and IFF21353) are able to modify IFF05588 under these reaction conditions | 0.25 |  |  |
